Measurements from article PMC3267196.

Legend:
Glu36 = Glu36 (UniProt position 36, GVPQYEYLVAM); test: IR (low-temperature light-induced difference FTIR); details: 170 K, 2 mM sodium phosphate (pH 7.0) for washing liposomes
Asp217 = Asp217 (UniProt position 217, GFSFLDLHGLR); test: IR (time-resolved FTIR, quoted from ref 74); details: Unphotolysed ASR; the protonation state of Asp217 is inferred from whether it accepts a proton on M formation; cited from earlier work

Substance	pKa (Glu36; buffers for pH 5 and 9 not stated, Dark-adapted ASR (97% all-trans retinal), unphotolysed state versus L intermediate formed by >580 nm illumination)	pKa (Glu36; not stated for pH 5 and 9, Dark-adapted ASR (predominantly all-trans), unphotolysed state bands in the L minus ASR difference spectrum)	pKa (Asp217)
Anabaena sensory rhodopsin (ASR) (Anabaena (Nostoc) sp. PCC 7120)	between 6 and 7	about 7	–
Anabaena sensory rhodopsin (ASR), as studied by Shi et al. 2006 (Anabaena (Nostoc) sp. PCC 7120)	–	–	between 6 and 7
